Laboratory results published in the MegaScale stability set (Tsuboyama et al. 2023).

B1: EEHEE_rd3_1049 (parent)
chain: TTVKLGDIKVTFDNPEKAKKYAQKLAKIYQLTVHVHGDTIHVK

Variants of: B1
Assay: folding stability dG (cDNA display proteolysis); higher = more stable
Conditions: PBS, room temperature

Row | Variant | folding stability dG
1 | TTVKLGDIKVTFDNPEKAKKYAQKLAKIMQLTVHVHGDTIHVK | 5.29 kJ/mol
2 | TTVKLGDIKVTFDNPEKAKKYAQKLAKILQLTVHVHGDTIHVK | 7.82 kJ/mol
3 | TTVKLGDIKVTFDNPEKAKKYAQKLAKIQQLTVHVHGDTIHVK | 1.56 kJ/mol
4 | TTVKLGDIKVTFDNPEKAKKYAQKLAKITQLTVHVHGDTIHVK | 2.75 kJ/mol
5 | TTVKLGDIKVTFDNPEKAKKYAQKLAKIPQLTVHVHGDTIHVK | 2.16 kJ/mol
6 | TTVKLGDIKVTFDNPEKAKKYAQKLAKIVQLTVHVHGDTIHVK | 2.33 kJ/mol
7 | TTVKLGDIKVTFDNPEKAKKYAQKLAKIKQLTVHVHGDTIHVK | 2.8 kJ/mol
8 | TTVKLGDIKVTFDNPEKAKKYAQKLAKISQLTVHVHGDTIHVK | 2.02 kJ/mol
9 | TTVKLGDIKVTFDNPEKAKKYAQKLAKIGQLTVHVHGDTIHVK | 2.43 kJ/mol
10 | TTVKLGDIKVTFDNPEKAKKYAQKLAKIHQLTVHVHGDTIHVK | 5.5 kJ/mol
11 | TTVKLGDIKVTFDNPEKAKKYAQKLAKIDQLTVHVHGDTIHVK | -0.272 kJ/mol
12 | TTVKLGDIKVTFDNPEKAKKYAQKLAKIEQLTVHVHGDTIHVK | 0.364 kJ/mol
13 | TTVKLGDIKVTFDNPEKAKKYAQKLAKIIQLTVHVHGDTIHVK | 3 kJ/mol
14 | TTVKLGDIKVTFDNPEKAKKYAQKLAKIAQLTVHVHGDTIHVK | 2.29 kJ/mol
15 | TTVKLGDIKVTFDNPEKAKKYAQKLAKIWQLTVHVHGDTIHVK | 6.98 kJ/mol
16 | TTVKLGDIKVTFDNPEKAKKYAQKLAKINQLTVHVHGDTIHVK | 2.44 kJ/mol
17 | TTVKLGDIKVTFDNPEKAKKYAQKLAKIRQLTVHVHGDTIHVK | 3.37 kJ/mol
18 | TTVKLGDIKVTFDNPEKAKKYAQKLAKIFQLTVHVHGDTIHVK | 8.84 kJ/mol
19 | TTVKLGDIKVTFDNPEKAKKYAQKLASIYQLTVHVHGDTIHVK | 7.65 kJ/mol
20 | TTVKLGDIKVTFDNPEKAKKYAQKLANIYQLTVHVHGDTIHVK | 6.92 kJ/mol
21 | TTVKLGDIKVTFDNPEKAKKYAQKLAGIYQLTVHVHGDTIHVK | 5.73 kJ/mol
22 | TTVKLGDIKVTFDNPEKAKKYAQKLAQIYQLTVHVHGDTIHVK | 8.13 kJ/mol
23 | TTVKLGDIKVTFDNPEKAKKYAQKLAEIYQLTVHVHGDTIHVK | 8.54 kJ/mol
24 | TTVKLGDIKVTFDNPEKAKKYAQKLAIIYQLTVHVHGDTIHVK | 7.5 kJ/mol

Row | Variant | folding stability dG
25 | TTVKLGDIKVTFDNPEKAKKYAQKLAVIYQLTVHVHGDTIHVK | 6.74 kJ/mol
26 | TTVKLGDIKVTFDNPEKAKKYAQKLAAIYQLTVHVHGDTIHVK | 8.51 kJ/mol
27 | TTVKLGDIKVTFDNPEKAKKYAQKLARIYQLTVHVHGDTIHVK | 9.49 kJ/mol
28 | TTVKLGDIKVTFDNPEKAKKYAQKLACIYQLTVHVHGDTIHVK | 12.3 kJ/mol
29 | TTVKLGDIKVTFDNPEKAKKYAQKLAMIYQLTVHVHGDTIHVK | 8.43 kJ/mol
30 | TTVKLGDIKVTFDNPEKAKKYAQKLALIYQLTVHVHGDTIHVK | 8.79 kJ/mol
31 | TTVKLGDIKVTFDNPEKAKKYAQKLADIYQLTVHVHGDTIHVK | 7.5 kJ/mol
32 | TTVKLGDIKVTFDNPEKAKKYAQKLATIYQLTVHVHGDTIHVK | 7.31 kJ/mol
33 | TTVKLGDIKVTFDNPEKAKKYAQKLAFIYQLTVHVHGDTIHVK | 8.8 kJ/mol
34 | TTVKLGDIKVTFDNPEKAKKYAQKLAYIYQLTVHVHGDTIHVK | 8.92 kJ/mol
35 | TTVKLGDIKVTFDNPEKAKKYAQKLAPIYQLTVHVHGDTIHVK | -1.36 kJ/mol
36 | TTVKLGDIKVTFDNPEKAKKYAQKLAWIYQLTVHVHGDTIHVK | 8.56 kJ/mol
37 | TTVKLGDIKVTFDNPEKAKKYAQKLAHIYQLTVHVHGDTIHVK | 7.13 kJ/mol
38 | TTVKLGDIKVTFDNPEKAKKYAQKLAKPYQLTVHVHGDTIHVK | -3.48 kJ/mol
39 | TTVKLGDIKVTFDNPEKAKKYAQKLAKWYQLTVHVHGDTIHVK | 8.97 kJ/mol
40 | TTVKLGDIKVTFDNPEKAKKYAQKLAKAYQLTVHVHGDTIHVK | 6.89 kJ/mol
41 | TTVKLGDIKVTFDNPEKAKKYAQKLAKFYQLTVHVHGDTIHVK | 8.43 kJ/mol
42 | TTVKLGDIKVTFDNPEKAKKYAQKLAKNYQLTVHVHGDTIHVK | 4.21 kJ/mol
43 | TTVKLGDIKVTFDNPEKAKKYAQKLAKKYQLTVHVHGDTIHVK | 10.4 kJ/mol
44 | TTVKLGDIKVTFDNPEKAKKYAQKLAKYYQLTVHVHGDTIHVK | 8.97 kJ/mol
45 | TTVKLGDIKVTFDNPEKAKKYAQKLAKGYQLTVHVHGDTIHVK | 1.46 kJ/mol
46 | TTVKLGDIKVTFDNPEKAKKYAQKLAKSYQLTVHVHGDTIHVK | 4.41 kJ/mol
47 | TTVKLGDIKVTFDNPEKAKKYAQKLAKDYQLTVHVHGDTIHVK | 4.53 kJ/mol
48 | TTVKLGDIKVTFDNPEKAKKYAQKLAKCYQLTVHVHGDTIHVK | 12.2 kJ/mol

Row | Variant | folding stability dG
49 | TTVKLGDIKVTFDNPEKAKKYAQKLAKVYQLTVHVHGDTIHVK | 6.53 kJ/mol
50 | TTVKLGDIKVTFDNPEKAKKYAQKLAKMYQLTVHVHGDTIHVK | 9.86 kJ/mol
51 | TTVKLGDIKVTFDNPEKAKKYAQKLAKLYQLTVHVHGDTIHVK | 9.74 kJ/mol
52 | TTVKLGDIKVTFDNPEKAKKYAQKLAKQYQLTVHVHGDTIHVK | 7.87 kJ/mol
53 | TTVKLGDIKVTFDNPEKAKKYAQKLAKHYQLTVHVHGDTIHVK | 6.85 kJ/mol
54 | TTVKLGDIKVTFDNPEKAKKYAQKLAKEYQLTVHVHGDTIHVK | 6.16 kJ/mol
55 | TTVKLGDIKVTFDNPEKAKKYAQKLAKTYQLTVHVHGDTIHVK | 6.18 kJ/mol
56 | TTVKLGDIKVTFDNPEKAKKYAQKLAKRYQLTVHVHGDTIHVK | 10 kJ/mol
57 | TTVKLGDIKVTFDNPEKAKKYAQILAKIYQLTVHVHGDTIHVK | 9.56 kJ/mol
58 | TTVKLGDIKVTFDNPEKAKKYAQTLAKIYQLTVHVHGDTIHVK | 7.67 kJ/mol
59 | TTVKLGDIKVTFDNPEKAKKYAQMLAKIYQLTVHVHGDTIHVK | 11.1 kJ/mol
60 | TTVKLGDIKVTFDNPEKAKKYAQSLAKIYQLTVHVHGDTIHVK | 6.55 kJ/mol
61 | TTVKLGDIKVTFDNPEKAKKYAQDLAKIYQLTVHVHGDTIHVK | 5.67 kJ/mol
62 | TTVKLGDIKVTFDNPEKAKKYAQPLAKIYQLTVHVHGDTIHVK | -1.51 kJ/mol
63 | TTVKLGDIKVTFDNPEKAKKYAQGLAKIYQLTVHVHGDTIHVK | 5.14 kJ/mol
64 | TTVKLGDIKVTFDNPEKAKKYAQYLAKIYQLTVHVHGDTIHVK | 12.7 kJ/mol
65 | TTVKLGDIKVTFDNPEKAKKYAQHLAKIYQLTVHVHGDTIHVK | 9.49 kJ/mol
66 | TTVKLGDIKVTFDNPEKAKKYAQRLAKIYQLTVHVHGDTIHVK | 9.06 kJ/mol
67 | TTVKLGDIKVTFDNPEKAKKYAQWLAKIYQLTVHVHGDTIHVK | 14.3 kJ/mol
68 | TTVKLGDIKVTFDNPEKAKKYAQVLAKIYQLTVHVHGDTIHVK | 8.18 kJ/mol
69 | TTVKLGDIKVTFDNPEKAKKYAQNLAKIYQLTVHVHGDTIHVK | 6.6 kJ/mol
70 | TTVKLGDIKVTFDNPEKAKKYAQQLAKIYQLTVHVHGDTIHVK | 7.77 kJ/mol
71 | TTVKLGDIKVTFDNPEKAKKYAQELAKIYQLTVHVHGDTIHVK | 6.95 kJ/mol
72 | TTVKLGDIKVTFDNPEKAKKYAQFLAKIYQLTVHVHGDTIHVK | 12 kJ/mol

Row | Variant | folding stability dG
73 | TTVKLGDIKVTFDNPEKAKKYAQLLAKIYQLTVHVHGDTIHVK | 11.2 kJ/mol
74 | TTVKLGDIKVTFDNPEKAKKYAQKVAKIYQLTVHVHGDTIHVK | 5.29 kJ/mol
75 | TTVKLGDIKVTFDNPEKAKKYAQKEAKIYQLTVHVHGDTIHVK | -3.23 kJ/mol
76 | TTVKLGDIKVTFDNPEKAKKYAQKAAKIYQLTVHVHGDTIHVK | 1.15 kJ/mol
77 | TTVKLGDIKVTFDNPEKAKKYAQKKAKIYQLTVHVHGDTIHVK | 1.98 kJ/mol
78 | TTVKLGDIKVTFDNPEKAKKYAQKIAKIYQLTVHVHGDTIHVK | 7.65 kJ/mol
79 | TTVKLGDIKVTFDNPEKAKKYAQKFAKIYQLTVHVHGDTIHVK | 3.63 kJ/mol
80 | TTVKLGDIKVTFDNPEKAKKYAQKYAKIYQLTVHVHGDTIHVK | 3.48 kJ/mol
81 | TTVKLGDIKVTFDNPEKAKKYAQKQAKIYQLTVHVHGDTIHVK | 1.23 kJ/mol
82 | TTVKLGDIKVTFDNPEKAKKYAQKTAKIYQLTVHVHGDTIHVK | 0.887 kJ/mol
83 | TTVKLGDIKVTFDNPEKAKKYAQKNAKIYQLTVHVHGDTIHVK | -1.31 kJ/mol
84 | TTVKLGDIKVTFDNPEKAKKYAQKPAKIYQLTVHVHGDTIHVK | -2.32 kJ/mol
85 | TTVKLGDIKVTFDNPEKAKKYAQKHAKIYQLTVHVHGDTIHVK | 0.0879 kJ/mol
86 | TTVKLGDIKVTFDNPEKAKKYAQKDAKIYQLTVHVHGDTIHVK | -2.54 kJ/mol
87 | TTVKLGDIKVTFDNPEKAKKYAQKRAKIYQLTVHVHGDTIHVK | 1.36 kJ/mol
88 | TTVKLGDIKVTFDNPEKAKKYAQKGAKIYQLTVHVHGDTIHVK | -1.07 kJ/mol
89 | TTVKLGDIKVTFDNPEKAKKYAQKWAKIYQLTVHVHGDTIHVK | 6.02 kJ/mol
90 | TTVKLGDIKVTFDNPEKAKKYAQKMAKIYQLTVHVHGDTIHVK | 6.49 kJ/mol
91 | TTVKLGDIKVTFDNPEKAKKYAQKCAKIYQLTVHVHGDTIHVK | 8.81 kJ/mol
92 | TTVKLGDIKVTFDNPEKAKKYAQKSAKIYQLTVHVHGDTIHVK | -1.38 kJ/mol
93 | TTVKLGDIKVTFDNPEKAKKYAQKLNKIYQLTVHVHGDTIHVK | 1.79 kJ/mol
94 | TTVKLGDIKVTFDNPEKAKKYAQKLDKIYQLTVHVHGDTIHVK | 0.326 kJ/mol
95 | TTVKLGDIKVTFDNPEKAKKYAQKLQKIYQLTVHVHGDTIHVK | 3.75 kJ/mol
96 | TTVKLGDIKVTFDNPEKAKKYAQKLVKIYQLTVHVHGDTIHVK | 3.61 kJ/mol

Row | Variant | folding stability dG
97 | TTVKLGDIKVTFDNPEKAKKYAQKLHKIYQLTVHVHGDTIHVK | 2.29 kJ/mol
98 | TTVKLGDIKVTFDNPEKAKKYAQKLTKIYQLTVHVHGDTIHVK | 2.77 kJ/mol
99 | TTVKLGDIKVTFDNPEKAKKYAQKLPKIYQLTVHVHGDTIHVK | -1.18 kJ/mol
100 | TTVKLGDIKVTFDNPEKAKKYAQKLWKIYQLTVHVHGDTIHVK | 5.02 kJ/mol
101 | TTVKLGDIKVTFDNPEKAKKYAQKLIKIYQLTVHVHGDTIHVK | 4.55 kJ/mol
102 | TTVKLGDIKVTFDNPEKAKKYAQKLFKIYQLTVHVHGDTIHVK | 4.67 kJ/mol
103 | TTVKLGDIKVTFDNPEKAKKYAQKLSKIYQLTVHVHGDTIHVK | 5.13 kJ/mol
104 | TTVKLGDIKVTFDNPEKAKKYAQKLRKIYQLTVHVHGDTIHVK | 5.74 kJ/mol
105 | TTVKLGDIKVTFDNPEKAKKYAQKLLKIYQLTVHVHGDTIHVK | 4.84 kJ/mol
106 | TTVKLGDIKVTFDNPEKAKKYAQKLMKIYQLTVHVHGDTIHVK | 5.13 kJ/mol
107 | TTVKLGDIKVTFDNPEKAKKYAQKLEKIYQLTVHVHGDTIHVK | 2.7 kJ/mol
108 | TTVKLGDIKVTFDNPEKAKKYAQKLGKIYQLTVHVHGDTIHVK | 3.76 kJ/mol
109 | TTVKLGDIKVTFDNPEKAKKYAQKLCKIYQLTVHVHGDTIHVK | 11.6 kJ/mol
110 | TTVKLGDIKVTFDNPEKAKKYAQKLYKIYQLTVHVHGDTIHVK | 4.22 kJ/mol
111 | TTVKLGDIKVTFDNPEKAKKYAQKLKKIYQLTVHVHGDTIHVK | 4.25 kJ/mol
112 | TTVKLGDIKVTFDNPEKAKKYAQKLAKIYILTVHVHGDTIHVK | 5.35 kJ/mol
113 | TTVKLGDIKVTFDNPEKAKKYAQKLAKIYELTVHVHGDTIHVK | 6.8 kJ/mol
114 | TTVKLGDIKVTFDNPEKAKKYAQKLAKIYALTVHVHGDTIHVK | 7.91 kJ/mol
115 | TTVKLGDIKVTFDNPEKAKKYAQKLAKIYFLTVHVHGDTIHVK | 7.82 kJ/mol
116 | TTVKLGDIKVTFDNPEKAKKYAQKLAKIYDLTVHVHGDTIHVK | 8.71 kJ/mol
117 | TTVKLGDIKVTFDNPEKAKKYAQKLAKIYGLTVHVHGDTIHVK | 13.5 kJ/mol
118 | TTVKLGDIKVTFDNPEKAKKYAQKLAKIYHLTVHVHGDTIHVK | 10.1 kJ/mol
